Data on 10 molecules can be found in patent US10801046B2, “Methods and materials for biosynthesizing multifunctional, multivariate molecules via carbon chain modification” (INVISTA NORTH AMERICA S.A.R.L., priority 2016, dated 2020).

To fix the notation:
B1: SEQ ID NO: 123: Pseudomonas sp. 10-1B aminotransferase (protein)
chain: MENSMSLNDLQQRDIDNLLHPYTNHHLHQSQGPHVITGGDGIYVTDDQGNRYIEGLAGLFCASLGFSEPRLAQAAFEQLQRMPFYHAFAHKSTQPGIELAERLLAMAPPSMSKVFFANSGSEANDTAVKLIWYYHNAIGQPQKKKIIARQRGYHGVTVASASLTGLPNNHRDFDLPIANILHTDCPHYYRYGLPGESEAAFVDRCVANLEALILHEGADTIAAFFAEPVMVSGGVILPPQGYFAKVQALLRKYDILFVVDEVICGFARTGNMFGWQTYDLQPDMISLAKQLSAAYMPISALLVNDKIDQALKAQSEKIGSFSHGFTYGGHPVAAAVALEAQKIYQERDIVGHVRRVAPRFQAGIRRLGEHPLIGEARGVGLVAGLEFVRNKQTRETFAPEQSAAAYAGRRAQAHGVITRGLGDTLSLCPALIIDEEQIDDLIVRIERALDDTLAWAREQGLVDA
modifications: Pseudomonas sp. 10-1B
notes: Pseudomonas sp; 10-1B aminotransferase
B2: SEQ ID NO: 117: Thermomicrobium roseum aminotransferase (protein)
chain: MTEVAAVHPEPRTAPDFEQEALKHVWIHSAEWIRLAEERGFRVFERAYGSTLVDVYGREFIDGLSGLWVVNAGHGRKEIAEAMAEQASKLAYVSSANHTTVPTVRLAHELALRLPGDLNRVFFCSGGSEAVESAIKIAKQVQAMRGFPKRYKIIARRGSYHGMTYGAMSLTQSRNEKFFGPFMYGVYYVPSPNRYRNDFGLEGEEGDLMCANYVEQEILYQDPETVAAVIGEPISTSNGVHVPSPKYWQRLREICDKYGVLLIMDEVINGFGRTGKLFAAEHFGVVPDLMTMAKGITSGYAPMGAVAVRDSVFQIFQEQKEVPLGHLLTFGGHAVAAAAALKNLEIFEREGLVQQSAEKGAYLLERLKELLRHPTVGDVRGLGLMCGIELVKSKATKEKWPRNSAFIKALERRMNEKGLLTRVWEIVHVAPPLVVTYEELDRIVTIIDEALTETENEFASEIAE
modifications: Thermomicrobium roseum (strain ATCC 27502 / DSM 5159 / P-2)
notes: Thermomicrobium roseum aminotransferase
B3: SEQ ID NO: 181: Bradyrhizobium sp. DOA9 aminotransferase (protein)
chain: MVAKQLSNSLAHADISATLHPYTNARAHERQGPVIIDRGEGIYVYDDAGKEYIEGLAGLWSVAIGFDEPRIVEVAAAQMAKLPYYHTFSHKSHEPSIRLAEKLVGMTPEPLSRVFFTSSGSEANDTMIKMVWYMNNALGRPKKKKFLARHRAYHGVTVASGSLTGLPNNHKDFDLPVIPVRHLTCPHFYRFAQTEETEAEFSARLVSEAEATILEEGPDTIAAFVGEPLMAAGGVMPPPKGYWQGIEALCRKYDILLVADEVICGLGRLGTRFGCEHYHFTPDIMIVSKQLTSSYMPLAAVIFSETIYNAIADNTAKIGTFGHGFTASGHPVATAVALENLKIIEERDLVGNAARMGRILQARLGELAAHPLVGEVRGVGLIAGIELVSEKHTRRPFASAGEVGAAAFAAAQRHGLIVRAIGDTIALCPPLIINEDQVHELVARLGDALDDTAQWRSAENLN
modifications: Bradyrhizobium sp. DOA9
notes: Bradyrhizobium sp; DOA9 aminotransferase
B4: SEQ ID NO: 188: Vibrio mimicus thioesterase (protein, listed as Vibrio mimicus)
chain: MIRLLSLVLFFCLSAASQASEKLLVLGDSLSAGYQMPIEKSWPSLLPDALLEHGQDVTVINGSISGDTTGNGLARLPQLLDQHTPDLVLIELGANDGLRGFPPKVITSNLSKMISLIKDSGANVVMMQIRVPPNYGKRYSDMFYDIYPKLAEHQQVQLMPFFLEHVITKPEWMMDDGLHPKPEAQPWIAEFVAQELVKHL
B5: SEQ ID NO: 190: Bacteroides finegoldii CL09T03C10 thioesterase (protein)
chain: MSESNKIGTYKFVAEPFHVDFNGRLTMGVLGNHLLNCAGFHASDRGFGIASLNEDNYTWVLSRLAIELDEMPYQYEDFSVQTWVENVYRLFTDRNFAIMNKEGKKIGYARSVWAMISLNTRKPADLLALHGGSIVDYICDEPCPIEKPSRIKVTNTQPLATLTAKYSDIDINGHVNSIRYIEHILDLFPIDLYKTKRIRRFEMAYVAESYFGDELTFFCDEANENEFHVEVKKNGSEVVCRSKVIFE
modifications: Bacteroides finegoldii CL09T03C10
notes: Bacteroides finegoldii CL09T03C10 thioesterase
B6: SEQ ID NO: 191: Pseudoalteromonas sp. SW0106-04 thioesterase (protein)
chain: MSASILRVFIVLLLVTKPLFAWADNQILVLGDSLSAAYGLKQHQGWVQLLQDTYEQQNTPTTLINASISGETTGGALRRLDAILKEHTPTHVLIELGGNDGLRGFPVTKMKANLHALIDKSREAGAEVALMQIRIPPNYGRRYTELFEQSFVDVAKEKQVTLMPFFVEQVATNGELMQNDNIHPNAEAQPILRDIMKTQISNWLTK
modifications: Pseudoalteromonas sp. SW0106-04
notes: Pseudoalteromonas sp; SW0106-04 thioesterase
B7: SEQ ID NO: 82: Vibrio shilonii AK1 thioesterase (protein)
chain: MIRQLSYFVLIVISLASFHAKAATLLILGDSLSAGYNMRAEQSWPTMLSDELSSGDEPMKVINGSVSGDTTSNGLAKLPGLLKQHSPDYVLIELGANDGLRGFQPSIIKNNLASLIEMSQQAGSKVLLMQIRIPPNYGKRYASMFEGIYPALAQESGVPLLPFFLEQVIIKPEWMMEDGLHPKPEAQPFIAQFVAESMQPHL
modifications: Vibrio shilonii AK1
notes: Vibrio shilonii AK1 thioesterase
B8: SEQ ID NO: 189: Sedimenticola thiotaurini thioesterase (protein, listed as Sedimenticola thiotaurini)
chain: MKKLFLLLIFAMSNVPAAEPVILVLGDSLSAAYGIERSRGWVSLLQSRLQQAGYPHRVVNASISGDTTAGGLARLPRALEQFQPDILIIELGGNDGLRGLGNRQTRDHLDQMITLARASHSRPLLLGMMLPPNFGKAFTEKFLQIYRDLAEQRNVPLVPFFLAGVADRPEWMQSDGIHPTAEGQPLMLEHVWEQLQPMLEETSVHSDKSLK
B9: SEQ ID NO: 86: Marine sediment metagenome thioesterase (protein)
chain: MTVKALTTRLPAPGPQVRYFSALRSAVLCVFLLAAGFCASTSAESDDGVLLVFGDSLSAAYRMDERDGWVALLQQQLREESTALQVVNGSVSGETTAGGLARLPAMLDAHQPDIVMLELGGNDGLRGLPVTSIRQNLERMIQMSQQAGARVILAGIQIPPNYGPRYTAPFYAQYQELADEYGLVLIPFLLEGIADNPALMQDDGIHPTAAAQPMIVDTVWPVLQGVLTATDRP
modifications: Description of Unknown: Marine sediment metagenome
notes: Marine sediment metagenome thioesterase
B10: SEQ ID NO: 192: Vibrio mytili thioesterase (protein, listed as Vibrio mytili)
chain: MIRLLSLFLFFSLSTLAHANEKLLVLGDSLSAGYQMPIEKSWPSLLSNALLEHDQDVTVINGSISGDTTGNGLARLPQLLDQHTPDFVILELGANDGLRGFPPKLITANLSKMITMIKNSGAKVFMMQIRVPPNYGKRYSDMFYDIYPKLAEHQQVTLLPFFLEHVVTKPEWMMDDGLHPKPEAQPWIAEFVAQELIKHL

Test system in the first assay: not listed separately
Briefly: In vivo aminotransferase activity screening, 7-aminoheptanoate by LC-MS. In kind it is cell-based, Escherichia coli. Conditions: in vivo conversion of 7-oxoheptanoate to 7-aminoheptanoate, 120 aminotransferases screened. The method, then:
A 165-member aminotransferase library from Twist on IPTG-inducible T7- pUC expression vectors was co-transformed into T7 Express lysY/Iq with a constitutive expression pJ23150-derived plasmid bearing the phosphopantetheinyl transferase sfp from Bacillus subtilis, CAR_Srot from Invista and BioC from Serratia marcescens (UniprotKB Accession No. P36571 (SEQ ID NO: 165)). The resulting strains were incubated in 0.5 ml of rich media (terrific broth or LB containing 8% glycerol) supplemented with 0.4 mM IPTG and received 1 g/L monomethyl heptanedioate, 1 g/L heptanedioate, or no organic acid addition, depending on the experiment. Following incubation overnight at 37° C. in a shaking incubator, cells were pelleted and the supernatants were analyzed using LC-MS for 7-aminoheptanoate or monomethyl 7-aminoheptanoate. A Vibrio fluvialis aminotransferase (UniProtKB Accession No. F2XBU9 (SEQ ID NO: 128)) was used as a positive control.
Consider B1, for which the “7-aminoheptanoate yield compared to the positive control (F2XBU9)” value was “higher 7-aminoheptanoate yields”. As for B2, the “7-aminoheptanoate yield compared to the positive control (F2XBU9)” value is “higher 7-aminoheptanoate yields”. On the same count and under the same terms, then B3, with “higher 7-aminoheptanoate yields”.

For another assay, the system named is heptanedioyl-ACP.
Experiment: not given
In kind it is cell-based, Escherichia coli. Conditions: top 150 hits screened in vivo.
As to B4, the “activity toward heptanedioyl-ACP in vivo” value is “displayed considerable activity toward heptanedioyl-ACP”. Same read-out and setting: then B5, with “displayed considerable activity toward heptanedioyl-ACP”; and B6, with “displayed considerable activity toward heptanedioyl-ACP”; and B7, with “displayed considerable activity toward heptanedioyl-ACP”. B8: the “activity toward heptanedioyl-ACP in vivo” value was “displayed considerable activity toward heptanedioyl-ACP”. Turning to B9, the “activity toward heptanedioyl-ACP in vivo” value is “displayed considerable activity toward heptanedioyl-ACP”. B10: the “activity toward heptanedioyl-ACP in vivo” value was “displayed considerable activity toward heptanedioyl-ACP”.
